Reference: patent publication US20140302035A1 (MERRIMACK PHARMACEUTICALS, published 2014)

B1: Ab#3 (bispecific antibody, human IgG1, kappa)
heavy: QLQLQESGPGLVKPSETLSLTCTVSGGSISSSVYYWSWIRQPPGKGLEWIGVIYPSGNTYYSPSLKSRVTISVDTSKNQFSLKLSSVTAADTAVYYCARTIYDLFDIWGQGTMVTVSSASTKGPSVFPLAPSSKSTSGGTAALGCLVKDYFPEPVTVSWNSGALTSGVHTFPAVLQSSGLYSLSSVVTVPSSSLGTQTYICNVNHKPSNTKVDKKVEPKSCDKTHTCPSCPAPEFLGGPSVFLFPPKPKDTLMISRTPEVTCVVVDVSQEDPEVQFNWYVDGVEVHNAKTKPREEQFNSKYRVVSVLTVLHQDWLNGKEYKCKVSNKGLPSSIEKTISKAKGQPREPQVYTLPPSREEMTKNQVSLSCAVKGFYPSDIAVEWESNGQPENNYKTTPPVLDSDGSFFLVSKLTVDKSRWQQGNVFSCSVMHEALHNHYTQKSLSLSKSCDKTGGGGSGGGGSGGGGSGGGGSGGGGSGGGGSGGGGSGGGGSCPSCPAPEFLGGPSVFLFPPKPKDTLMISRTPEVTCVVVDVSQEDPEVQFNWYVDGVEVHNAKTKPREEQFNSDYRVVSVLTVLHQDWLNGKEYKCKVSNKGLPSSIEKTISKAKGQPREPQVYTLPPSREEMTKNQVSLWCLVKGFYPSDIAVEWESNGQPENNYKTTPPVLDSDGSFFLYSKLTVDKSRWQQGNVFSCSVMHEALHNHYTQKSLSLSGECGGGGSGGGGSQVQLVQSGSELKKPGESVKVSCKASGYTFTNYGMNWVRQAPGQGLKWMGWINTYTGESTYADDFKGRFAFSLDTSASTAYLQISSLKAEDTAVYFCARFAIKGDYWGQGTLVTVSSASTGGGGSGGGGSGGGGSGGGGSDIVMTQSPLSLPVTPGEPASISCRSTKSLLHSDGITYLYWYLQKPGQSPQLLIYQLSNLASGVPDRFSSSGSGTDFTLKISRVEAEDEGVYYCAQNLEIPRTFGQGTKVEIK
light: DIQMTQSPSSVSASVGDRVTITCRASQGISSWLAWYQQKPGKAPKLLIYAASSLQSGVPSRFSGSGSGTDFTLTISSLQPEDFATYYCLQANSFPPTFGGGTKVEIKRTVAAPSVFIFPPSDEQLKSGTASVVCLLNNFYPREAKVQWKVDNALQSGNSQESVTEQDSKDSTYSLSSTLTLSKADYEKHKVYACEVTHQGLSSPVTKSFNRGEC
notes: Anti-c-Met Fab / tandem Fc / anti-EpCAM scFv TFcBA; also called Antibody #3
B2: Ab#4 (bispecific antibody, human IgG1, kappa)
heavy: QLQLQESGPGLVKPSETLSLTCTVSGGSISSSVYYWSWIRQPPGKGLEWIGVIYPSGNTYYSPSLKSRVTISVDTSKNQFSLKLSSVTAADTAVYYCARTIYDLFDIWGQGTMVTVSSASTKGPSVFPLAPSSKSTSGGTAALGCLVKDYFPEPVTVSWNSGALTSGVHTFPAVLQSSGLYSLSSVVTVPSSSLGTQTYICNVNHKPSNTKVDKKVEPKSCDKTHTCPSCPAPEFLGGPSVFLFPPKPKDTLMISRTPEVTCVVVDVSQEDPEVQFNWYVDGVEVHNAKTKPREEQFNSKYRVVSVLTVLHQDWLNGKEYKCKVSNKGLPSSIEKTISKAKGQPREPQVYTLPPSREEMTKNQVSLSCAVKGFYPSDIAVEWESNGQPENNYKTTPPVLDSDGSFFLVSKLTVDKSRWQQGNVFSCSVMHEALHNHYTQKSLSLSKSCDKTGGGGSGGGGSGGGGSGGGGSGGGGSGGGGSGGGGSGGGGSCPSCPAPEFLGGPSVFLFPPKPKDTLMISRTPEVTCVVVDVSQEDPEVQFNWYVDGVEVHNAKTKPREEQFNSDYRVVSVLTVLHQDWLNGKEYKCKVSNKGLPSSIEKTISKAKGQPREPQVYTLPPSREEMTKNQVSLWCLVKGFYPSDIAVEWESNGQPENNYKTTPPVLDSDGSFFLYSKLTVDKSRWQQGNVFSCSVMHEALHNHYTQKSLSLSGECGGGGSGGGGSDIVMTQSPLSLPVTPGEPASISCRSTKSLLHSDGITYLYWYLQKPGQSPQLLIYQLSNLASGVPDRFSSSGSGTDFTLKISRVEAEDEGVYYCAQNLEIPRTFGQGTKVEIKRTGGGGSGGGGSGGGGSGGGGSGQVQLVQSGSELKKPGESVKVSCKASGYTFTNYGMNWVRQAPGQGLKWMGWINTYTGESTYADDFKGRFAFSLDTSASTAYLQISSLKAEDTAVYFCARFAIKGDYWGQGTLVTVSS
light: DIQMTQSPSSVSASVGDRVTITCRASQGISSWLAWYQQKPGKAPKLLIYAASSLQSGVPSRFSGSGSGTDFTLTISSLQPEDFATYYCLQANSFPPTFGGGTKVEIKRTVAAPSVFIFPPSDEQLKSGTASVVCLLNNFYPREAKVQWKVDNALQSGNSQESVTEQDSKDSTYSLSSTLTLSKADYEKHKVYACEVTHQGLSSPVTKSFNRGEC
notes: Anti-c-Met Fab / tandem Fc / anti-EpCAM scFv TFcBA; also called Antibody #4
B3: Ab#6 (bispecific antibody, human IgG1, kappa)
heavy: QLQLQESGPGLVKPSETLSLTCTVSGGSISSSVYYWSWIRQPPGKGLEWIGVIYPSGNTYYSPSLKSRVTISVDTSKNQFSLKLSSVTAADTAVYYCARTIYDLFDIWGQGTMVTVSSASTKGPSVFPLAPSSKSTSGGTAALGCLVKDYFPEPVTVSWNSGALTSGVHTFPAVLQSSGLYSLSSVVTVPSSSLGTQTYICNVNHKPSNTKVDKKVEPKSCDKTHTCPSCPAPEFLGGPSVFLFPPKPKDTLMISRTPEVTCVVVDVSQEDPEVQFNWYVDGVEVHNAKTKPREEQFNSKYRVVSVLTVLHQDWLNGKEYKCKVSNKGLPSSIEKTISKAKGQPREPQVYTLPPSREEMTKNQVSLSCAVKGFYPSDIAVEWESNGQPENNYKTTPPVLDSDGSFFLVSKLTVDKSRWQQGNVFSCSVMHEALHNHYTQKSLSLSKSCDKTGGGGSGGGGSGGGGSGGGGSGGGGSGGGGSGGGGSGGGGSCPSCPAPEFLGGPSVFLFPPKPKDTLMISRTPEVTCVVVDVSQEDPEVQFNWYVDGVEVHNAKTKPREEQFNSDYRVVSVLTVLHQDWLNGKEYKCKVSNKGLPSSIEKTISKAKGQPREPQVYTLPPSREEMTKNQVSLWCLVKGFYPSDIAVEWESNGQPENNYKTTPPVLDSDGSFFLYSKLTVDKSRWQQGNVFSCSVMHEALHNHYTQKSLSLSGECGGGGSGGGGSDIVMTQSPLSLPVTPGEPASISCRSTKSLLHSDGITYLYWYLQKPGQSPQLLIYQLSNLASGVPDRFSSSGSGTDFTLKISRVEAEDEGVYYCAQNLEIPRTFGGGTKLEIKRTGGGGSGGGGSGGGGSGGGGSQVQLVQSGAEVKKPGESVKISCKASGYTFTNYGMNWVRQAPGQGLKWMGWINTYTGESTYADDFKGRFAFSLDTSASTAYLQLSSLRSEDTAVYFCARFAIKGDYWGQGTLVTVSS
light: DIQMTQSPSSVSASVGDRVTITCRASQGISSWLAWYQQKPGKAPKLLIYAASSLQSGVPSRFSGSGSGTDFTLTISSLQPEDFATYYCLQANSFPPTFGGGTKVEIKRTVAAPSVFIFPPSDEQLKSGTASVVCLLNNFYPREAKVQWKVDNALQSGNSQESVTEQDSKDSTYSLSSTLTLSKADYEKHKVYACEVTHQGLSSPVTKSFNRGEC
notes: Anti-c-Met Fab / tandem Fc / anti-EpCAM scFv TFcBA; also called Antibody #6

These binders were tested against T1, Human EpCAM-Fc-his tagged (human) (assay: BLI (ForteBio Octet), antibody loaded on Protein A tips, recombinant polyhistidine-tagged EpCAM-Fc in solution, 1:1 model).
T1 construct: also called Recombinant polyhistidine-tagged EpCAM-Fc; recombinant EpCAM
Protocol: For Octet analysis, all reagents and samples are brought to room temperature. Protein A sensor tips (ForteBio, #18-5010) are hydrated for 10 minutes in 1×PBS. Assay steps include: 1-2 minutes of equilibration in 1×PBS, 4 minutes of antibody loading (concentration of 50 μg/ml in 1×PBS), 1-2 minutes of baseline stabilization, 4 minutes of antibody:antigen association, and 4 minutes of antibody:antigen dissociation. 1×PBS is used as the matrix throughout. Data are analyzed with Octet Data Analysis software, processed, and fit to a 1:1 binding model to determine kinetic parameters (Kd, kₒₙ and kdiss).
Table A-2 describes approximate EpCAM binding affinity and dissociation rate as determined for Ab#1, Ab#2, Ab#3, Ab#4, Ab#5, Ab#6, Ab#7, Ab#8, Ab#9, Ab#10, Ab#11, Ab#12, and Ab#13.

T1 sequence (chain, as listed by the source): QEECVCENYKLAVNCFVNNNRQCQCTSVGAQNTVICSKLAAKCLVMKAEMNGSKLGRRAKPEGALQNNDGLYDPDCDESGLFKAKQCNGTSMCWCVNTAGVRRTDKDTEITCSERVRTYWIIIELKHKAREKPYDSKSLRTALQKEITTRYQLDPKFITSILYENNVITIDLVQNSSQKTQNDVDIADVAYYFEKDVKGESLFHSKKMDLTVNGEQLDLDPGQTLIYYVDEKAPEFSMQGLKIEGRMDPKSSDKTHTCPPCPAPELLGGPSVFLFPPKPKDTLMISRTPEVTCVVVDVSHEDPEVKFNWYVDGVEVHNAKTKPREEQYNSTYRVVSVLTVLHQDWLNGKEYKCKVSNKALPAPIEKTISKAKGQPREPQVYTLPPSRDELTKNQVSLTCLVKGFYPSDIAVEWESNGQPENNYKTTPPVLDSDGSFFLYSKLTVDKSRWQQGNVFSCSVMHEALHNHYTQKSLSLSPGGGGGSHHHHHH

Row | Binder | Kd [nM] | koff [s⁻¹]
1 | B1 | 17 | 0.00174
2 | B2 | 19.4 | 0.00174
3 | B3 | 11.2 | 0.00122
